Patent JP2002536968A (dated 2002)
Values belong to the binder of their own block, whether it stands above or below them.

Tests used:
[1] = target: HUVEC上の細胞表面発現KDR (human) (UniProt P35968); assay: cell-based or functional assay
[2] = target: T1, 可溶性融合タンパク質 KDR-AP (human, UniProt P35968 20-764); assay: BIAcore, KDR-AP immobilised (refers to Table 2)
T1 construct: extracellular domain; Made in NIH3T3 cells; also called KDR-アルカリ性ホスファターゼ融合タンパク質; 固定化KDR; not shown: human placental alkaline phosphatase (AP), from vector AP-tag
T1 sequence (P35968 20-764): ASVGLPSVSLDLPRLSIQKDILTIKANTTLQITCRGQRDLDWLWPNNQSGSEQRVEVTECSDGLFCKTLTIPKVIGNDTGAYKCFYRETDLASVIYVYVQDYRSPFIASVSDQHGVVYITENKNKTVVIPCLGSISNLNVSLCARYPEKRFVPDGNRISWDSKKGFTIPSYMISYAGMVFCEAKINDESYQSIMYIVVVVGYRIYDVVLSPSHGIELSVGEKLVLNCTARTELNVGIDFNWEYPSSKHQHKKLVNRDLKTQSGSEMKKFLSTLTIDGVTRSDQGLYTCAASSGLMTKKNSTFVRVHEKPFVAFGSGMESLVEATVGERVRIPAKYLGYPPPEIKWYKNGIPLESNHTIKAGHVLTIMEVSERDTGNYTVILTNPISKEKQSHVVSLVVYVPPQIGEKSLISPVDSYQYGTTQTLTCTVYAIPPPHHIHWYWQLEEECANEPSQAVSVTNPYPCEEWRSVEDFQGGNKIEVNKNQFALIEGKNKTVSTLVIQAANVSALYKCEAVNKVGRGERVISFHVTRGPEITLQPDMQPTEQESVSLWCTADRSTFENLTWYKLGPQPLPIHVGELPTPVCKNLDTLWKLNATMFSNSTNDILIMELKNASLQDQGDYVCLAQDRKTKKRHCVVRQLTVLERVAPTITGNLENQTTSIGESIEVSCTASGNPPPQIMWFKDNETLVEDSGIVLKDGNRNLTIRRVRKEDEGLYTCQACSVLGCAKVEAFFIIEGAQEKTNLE

[3] = target: T1, 可溶性融合タンパク質 KDR-AP; assay: BIAcore, KDR-AP immobilised, antibody injected at 25-200 nM
[4] = target: T1, 可溶性融合タンパク質 KDR-AP; assay: competitive VEGF binding ELISA: antibody mixed with KDR-AP, then on VEGF165-coated plate
[5] = target: T1, 可溶性融合タンパク質 KDR-AP; assay: BIAcore, KDR-AP immobilised, soluble scFv injected
[6] = target: T1, 可溶性融合タンパク質 KDR-AP; assay: competitive VEGF blocking ELISA: scFv mixed with KDR-AP, then on VEGF165-coated plate
[7] = target: T1, 可溶性融合タンパク質 KDR-AP; assay: direct binding ELISA, soluble scFv on KDR-coated plate; concentration for 50% of maximal binding

HUVECのVEGF誘導性有糸分裂誘発の50%を抑制するのに必要な抗体濃度 ([3H]-TdR) [1]: 0.8 nM
fold higher affinity than parent scFv p1C11 [2]: 2.5 fold
Kd [3]: 0.82 nM
IC50 [4]: 0.8 nM
B1: キメラ抗KDR抗体 c-p1C11 (antibody, from another filing)
scFv: QVKLQQSGAELVGSGASVKLSCTTSGFNIKDFYMHWVKQRPEQGLEWIGWIDPENGDSDYAPKFQGKATMTADSSSNTAYLQLSSLTSEDTAVYYCNAYYGDYEGYWGQGTTVTVSSGGGGSGGGGSGGGGSDIELTQSPAIMSASPGEKVTITCSASSSVSYMHWFQQKPGTSPKLWIYSTSNLASGVPARFSGSGSGTSYSLTISRMEAEDAATYYCQQRSSYPFTFGSGTKLEIK

Kd [5]: 2.1 nM
IC50 [6]: 3 nM
IC50 [4]: 2 nM
EC50 [7]: 0.3 nM
B2: scFv p1C11 (scFv)
chain: B1 scFv
